IntAct's records for PubMed 20818436

B1: Zinc finger protein GLI1 (Homo sapiens), P08151 (parent)
chain: MFNSMTPPPISSYGEPCCLRPLPSQGAPSVGTEGLSGPPFCHQANLMSGPHSYGPARETNSCTEGPLFSSPRSAVKLTKKRALSISPLSDASLDLQTVIRTSPSSLVAFINSRCTSPGGSYGHLSIGTMSPSLGFPAQMNHQKGPSPSFGVQPCGPHDSARGGMIPHPQSRGPFPTCQLKSELDMLVGKCREEPLEGDMSSPNSTGIQDPLLGMLDGREDLEREEKREPESVYETDCRWDGCSQEFDSQEQLVHHINSEHIHGERKEFVCHWGGCSRELRPFKAQYMLVVHMRRHTGEKPHKCTFEGCRKSYSRLENLKTHLRSHTGEKPYMCEHEGCSKAFSNASDRAKHQNRTHSNEKPYVCKLPGCTKRYTDPSSLRKHVKTVHGPDAHVTKRHRGDGPLPRAPSISTVEPKREREGGPIREESRLTVPEGAMKPQPSPGAQSSCSSDHSPAGSAANTDSGVEMTGNAGGSTEDLSSLDEGPCIAGTGLSTLRRLENLRLDQLHQLRPIGTRGLKLPSLSHTGTTVSRRVGPPVSLERRSSSSSSISSAYTVSRRSSLASPFPPGSPPENGASSLPGLMPAQHYLLRARYASARGGGTSPTAASSLDRIGGLPMPPWRSRAEYPGYNPNAGVTRRASDPAQAADRPAPARVQRFKSLGCVHTPPTVAGGGQNFDPYLPTSVYSPQPPSITENAAMDARGLQEEPEVGTSMVGSGLNPYMDFPPTDTLGYGGPEGAAAEPYGARGPGSLPLGPGPPTNYGPNPCPQQASYPDPTQETWGEFPSHSGLYPGPKALGGTYSQCPRLEHYGQVQVKPEQGCPVGSDSTGLAPCLNAHPSEGPPHPQPLFSHYPQPSPPQYLQSGPYTQPPPDYLPSEPRPCLDFDSPTHSTGQLKAQLVCNYVQSQQELLWEGGGREDAPAQEPSYQSPKFLGGSQVSPSRAKAPVNTYGPGFGPNLPNHKSGSYPTPSPCHENFVVGANRASHRAAAPPRLLPPLPTCYGPLKVGGTNPSCGHPEVGRLGGGPALYPPPEGQVCNPLDSLDLDNTQLDFVAILDEPQGLSPPPSHDQRGSSGHTPPPSGPPNMAVGNMSVLLRSLPGETEFLNSSA

Variants of: B1
Conditions: with itch_human ITCH

| effect of a mutation on the interaction | Variant |
| --- | --- |
| disrupting interaction | Y859F;Y872F;S1060A |
